The values that follow come from patent publication US20200024360A1 (Janssen / Centocor, published 2020).

Substitutions are numbered along the chain they refer to. Names and notes keep the numbering of the source.

The chains are these.
B1: CD3B150 (antibody, V domains shown)
VH: EVQLLESGGGLVQPGGSLRLSCAASGFTFNTYAMNWVRQAPGKGLEWVARIRSKYNNYATYYADSVKGRFTISRDNSKNTLYLQMNSLRAEDTAVYYCAKHGNFGNSYVSWFAYWGQGTLVTVSS
VL: QTVVTQEPSLTVSPGGTVTLTCRSSTGAVTTSNYANWVQQKPGQAPRGLIGGTNKRAPGTPARFSGSLLGGKAALTLSGVQPEDEAEYYCALWYSNLWVFGGGTKLTVL
notes: also called CD3H142/CD3L66; CD3B50
B2: CD3B147 (antibody, V domains shown)
VH: B1 VH
VL: B1 VL with T2A, V80A
notes: also called CD3H142/CD3L63
B3: CD3B148 (antibody, V domains shown)
VH: B1 VH
VL: QSVLTQPPSVSAAPGQKVTISCRSSTGAVTTSNYANWVQQLPGTAPKGLIGGTNKRAPGIPDRFSGSKSGTSATLGITGLQTGDEADYYCALWYSNLWVFGGGTKLTVL
notes: also called CD3H142/CD3L64
B4: CD3B146 (antibody, V domains shown)
VH: B1 VH with L5V, D64A, N76D, T80S, R89K, A90T, K100R
VL: B1 VL
notes: also called CD3H141/CD3L66
B5: CD3B143 (antibody, V domains shown)
VH: B1 VH with L5V, D64A, N76D, T80S, R89K, A90T, K100R
VL: B1 VL with T2A, V80A
notes: also called CD3H141/CD3L63
B6: CD3B155 (antibody, V domains shown)
VH: EVQLVESGGGLVQPGGSLKLSCAASGFTFNTYAMNWVRQASGKGLEWVGRIRSKYNGYATYYAASVKGRFTISRDDSKNTAYLQMNSLKTEDTAVYYCTRHGNFGNSYVSWFAYWGQGTLVTVSS
VL: B1 VL with T2A, V80A
notes: also called CD3H144/CD3L63
B7: CD3B154 (antibody, V domains shown)
VH: B1 VH with A99V
VL: B1 VL
notes: also called CD3H143/CD3L66
B8: CD3B158 (antibody, V domains shown)
VH: B6 VH
VL: B1 VL
notes: also called CD3H144/CD3L66
B9: CD3B151 (antibody, V domains shown)
VH: B1 VH with A99V
VL: B1 VL with T2A, V80A
notes: also called CD3H143/CD3L63
B10: CD3B124 (antibody, V domains shown)
VH: EVKLLESGGGLVQPKGSLKLSCAASGFTFNTYAMNWVRQAPGKGLEWVARIRSKYNNYATYYADSVKDRFTISRDDSQSILYLQMNNLKTEDTAMYYCVRHGNFGNSYVSWFAYWGQGTLVTVSA
VL: QAVVTQESALTTSPGETVTLTCRSSTGAVTTSNYANWVQEKPDHLFTGLIGGTNKRAPGVPARFSGSLIGDKAALTITGAQTEDEAIYFCALWYSNLWVFGGGTKLTVL
notes: also called chimeric SP34-derived antibody
B11: PS3B60 (bispecific antibody, human IgG4 S228P, kappa, lambda, F234A L235A)
heavy 1: not shown
light 1: not shown
heavy 2: EVQLVESGGGLVQPGGSLRLSCAASGFTFNTYAMNWVRQAPGKGLEWVARIRSKYNNYATYYAASVKGRFTISRDDSKNSLYLQMNSLKTEDTAVYYCARHGNFGNSYVSWFAYWGQGTLVTVSSASTKGPSVFPLAPCSRSTSESTAALGCLVKDYFPEPVTVSWNSGALTSGVHTFPAVLQSSGLYSLSSVVTVPSSSLGTKTYTCNVDHKPSNTKVDKRVESKYGPPCPPCPAPEAAGGPSVFLFPPKPKDTLMISRTPEVTCVVVDVSQEDPEVQFNWYVDGVEVHNAKTKPREEQFNSTYRVVSVLTVLHQDWLNGKEYKCKVSNKGLPSSIEKTISKAKGQPREPQVYTLPPSQEEMTKNQVSLTCLVKGFYPSDIAVEWESNGQPENNYKTTPPVLDSDGSFLLYSKLTVDKSRWQEGNVFSCSVMHEALHNHYTQKSLSLSLGK
light 2: QTVVTQEPSLTVSPGGTVTLTCRSSTGAVTTSNYANWVQQKPGQAPRGLIGGTNKRAPGTPARFSGSLLGGKAALTLSGVQPEDEAEYYCALWYSNLWVFGGGTKLTVLGQPKAAPSVTLFPPSSEELQANKATLVCLISDFYPGAVTVAWKADSSPVKAGVETTTPSKQSNNKYAASSYLSLTPEQWKSHRSYSCQVTHEGSTVEKTVAPTECS
notes: IgG4 PAA; PSMA arm first, then CD3 arm (F405L, R409K); also called PSMB344 x CD3B219
B12: PS3B73 (bispecific antibody, human IgG4 S228P, kappa, lambda, F234A L235A)
heavy 1: not shown
light 1: not shown
heavy 2: B11 heavy 2
light 2: B11 light 2
notes: IgG4 PAA; PSMA arm first, then CD3 arm (F405L, R409K); also called PSMB361 x CD3B219
B13: PS3B74 (bispecific antibody, human IgG4 S228P, kappa, lambda, F234A L235A)
heavy 1: not shown
light 1: not shown
heavy 2: B11 heavy 2
light 2: B11 light 2
notes: IgG4 PAA; PSMA arm first, then CD3 arm (F405L, R409K); also called PSMB362 x CD3B219
B14: PS3B61 (bispecific antibody, human IgG4 S228P, kappa, lambda, F234A L235A)
heavy 1: not shown
light 1: not shown
heavy 2: B11 heavy 2
light 2: B11 light 2
notes: IgG4 PAA; PSMA arm first, then CD3 arm (F405L, R409K); also called PSMB345 x CD3B219
B15: PS3B64 (bispecific antibody, human IgG4 S228P, kappa, lambda, F234A L235A)
heavy 1: not shown
light 1: not shown
heavy 2: B11 heavy 2
light 2: B11 light 2
notes: IgG4 PAA; PSMA arm first, then CD3 arm (F405L, R409K); also called PSMB349 x CD3B219
B16: PS3B70 (bispecific antibody, human IgG4 S228P, kappa, lambda, F234A L235A)
heavy 1: not shown
light 1: not shown
heavy 2: B11 heavy 2
light 2: B11 light 2
notes: IgG4 PAA; PSMA arm first, then CD3 arm (F405L, R409K); also called PSMB358 x CD3B219
B17: PS3B63 (bispecific antibody, human IgG4 S228P, kappa, lambda, F234A L235A)
heavy 1: not shown
light 1: not shown
heavy 2: B11 heavy 2
light 2: B11 light 2
notes: IgG4 PAA; PSMA arm first, then CD3 arm (F405L, R409K); also called PSMB347 x CD3B219
B18: PS3B72 (bispecific antibody, human IgG4 S228P, kappa, lambda, F234A L235A)
heavy 1: not shown
light 1: not shown
heavy 2: B11 heavy 2
light 2: B11 light 2
notes: IgG4 PAA; PSMA arm first, then CD3 arm (F405L, R409K); also called PSMB360 x CD3B219
B19: PS3B71 (bispecific antibody, human IgG4 S228P, kappa, lambda, F234A L235A)
heavy 1: not shown
light 1: not shown
heavy 2: B11 heavy 2
light 2: B11 light 2
notes: IgG4 PAA; PSMA arm first, then CD3 arm (F405L, R409K); also called PSMB359 x CD3B219
B20: PS3B75 (bispecific antibody, human IgG4 S228P, kappa, lambda, F234A L235A)
heavy 1: not shown
light 1: not shown
heavy 2: B11 heavy 2
light 2: B11 light 2
notes: IgG4 PAA; PSMA arm first, then CD3 arm (F405L, R409K); also called PSMB363 x CD3B219
B21: PS3B62 (bispecific antibody, human IgG4 S228P, kappa, lambda, F234A L235A)
heavy 1: not shown
light 1: not shown
heavy 2: B11 heavy 2
light 2: B11 light 2
notes: IgG4 PAA; PSMA arm first, then CD3 arm (F405L, R409K); also called PSMB346 x CD3B219

T2 sequence (Q95LI5 22-198): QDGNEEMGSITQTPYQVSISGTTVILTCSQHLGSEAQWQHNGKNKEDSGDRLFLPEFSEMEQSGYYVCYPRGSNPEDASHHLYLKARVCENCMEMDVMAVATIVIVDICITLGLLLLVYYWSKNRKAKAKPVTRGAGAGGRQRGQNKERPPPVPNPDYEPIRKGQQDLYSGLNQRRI

One test deals with T1, human CD3ε on primary human T cells (human, UniProt P07766 23-207).
T1 construct: whole, on cells; Part of the TCR-CD3 complex on the cells; also called cell-surface CD3ε; CD3E
T1 sequence (P07766 23-207): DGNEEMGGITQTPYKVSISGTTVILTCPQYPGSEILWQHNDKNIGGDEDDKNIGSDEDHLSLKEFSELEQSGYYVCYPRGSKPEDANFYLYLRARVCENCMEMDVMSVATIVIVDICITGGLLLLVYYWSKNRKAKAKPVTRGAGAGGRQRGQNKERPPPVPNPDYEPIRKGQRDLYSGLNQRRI
Put plainly: flow cytometry on primary human T cells (cell-surface CD3e), anti-human IgG (H+L) Alexa Fluor 647; one intermediate concentration of the titration is shown. How it is done:
(§1) The resulting panel of anti-CD3 antibodies was tested for binding against cell-surface CD3ε on primary human T cells. To do this, binding of antibodies from expression supernatants was visualized using a polyclonal anti-human secondary antibody and analyzed by flow cytometry. Briefly, binding of anti-CD3 antibodies to cell-surface CD3E was assessed by flow cytometry using primary Human T lymphocytes purified by negative selection (Biological Specialty, Colmar, USA). Expression supernatants or purified antibodies were normalized to 10 μg/ml in media or FACS buffer (BD BioSciences), respectively. 2×10⁵ cells were aliquoted into wells of a 96 well round-bottomed plate (CoStar) for labeling. Antibodies in expression supernatant were added to cells and incubated for 45 min at 4° C. Following centrifugation at 1300 rpm for 3 min and removal of supernatant, 50 μL of anti-human IgG (H+L) Alexa Fluor 647 secondary antibody (Life technologies Inc.) was incubated with the cells at a final concentration of 10 μg/mL for 30 min at 4° C. away from direct light. Following washing and resuspension in 30 μL FACs buffer (BD BioSciences). Sample collection was performed on an Intellicyt HTFC system using ForeCyt software. Viable single cells were gated prior to analysis of binding using the green or red fixable live/dead dyes (Life Technologies Inc.) and forward/side scatter area and height parameters, respectively. Graphs were generated in GraphPad Prism version 5 using mean fluorescence intensity values.
Regarding B1, the binding result is on record as “binds”.

Turning to B2, the binding result is given as “binds”.

On to B3, for which the binding result is recorded as “binds”.

B4: the binding result is recorded as “binds”.

Turning to B5, the binding result is given as “binds”.

Regarding B6, the binding result is listed as “binds”.

For B7, the binding result is “binds”.

B8: the binding result was “binds”.

Consider B9, for which the binding result is “binds”.

Another test has as its target T2, cynomolgus CD3ε on primary cynomolgus CD4+ T cells (cynomolgus monkey, UniProt Q95LI5 22-198).
T2 construct: whole, on cells
Description: flow cytometry on primary cynomolgus CD4+ T cells (CD3e), anti-human IgG (H+L) Alexa Fluor 647. How it is done: as §1
Binding analysis of the anti-CD3 hits to primary cynomolgus CD4⁺ T cells was then tested in order to assess the retention of cross-reactivity. Purified CD4⁺ T cells from the peripheral blood of cynomolgus monkeys (Zen Bio, Triangle Research Park, USA were used). Assay protocols were similar to those described above.
For the molecule B1, the binding result is on record as “binds”.

For B2, the binding result was “binds”.

For B4, the binding result is “binds”.

On to B5, for which the binding result was “binds”.

With B6, the binding result is “binds”.

B7: the binding result is on record as “binds”.

On to B8, for which the binding result is recorded as “binds”.

As for B9, the binding result is recorded as “binds”.

For B10, the binding result is on record as “binds”.

In the next test the target is T3, human PSMA (prostate specific membrane antigen), full length (human, UniProt Q04609 1-750).
T3 construct: On LNCaP or C4-2B cells (endogenous) or transduced HEK293F cells; also called FOLH1_HUMAN; hPSMA
T3 sequence (Q04609 whole entry): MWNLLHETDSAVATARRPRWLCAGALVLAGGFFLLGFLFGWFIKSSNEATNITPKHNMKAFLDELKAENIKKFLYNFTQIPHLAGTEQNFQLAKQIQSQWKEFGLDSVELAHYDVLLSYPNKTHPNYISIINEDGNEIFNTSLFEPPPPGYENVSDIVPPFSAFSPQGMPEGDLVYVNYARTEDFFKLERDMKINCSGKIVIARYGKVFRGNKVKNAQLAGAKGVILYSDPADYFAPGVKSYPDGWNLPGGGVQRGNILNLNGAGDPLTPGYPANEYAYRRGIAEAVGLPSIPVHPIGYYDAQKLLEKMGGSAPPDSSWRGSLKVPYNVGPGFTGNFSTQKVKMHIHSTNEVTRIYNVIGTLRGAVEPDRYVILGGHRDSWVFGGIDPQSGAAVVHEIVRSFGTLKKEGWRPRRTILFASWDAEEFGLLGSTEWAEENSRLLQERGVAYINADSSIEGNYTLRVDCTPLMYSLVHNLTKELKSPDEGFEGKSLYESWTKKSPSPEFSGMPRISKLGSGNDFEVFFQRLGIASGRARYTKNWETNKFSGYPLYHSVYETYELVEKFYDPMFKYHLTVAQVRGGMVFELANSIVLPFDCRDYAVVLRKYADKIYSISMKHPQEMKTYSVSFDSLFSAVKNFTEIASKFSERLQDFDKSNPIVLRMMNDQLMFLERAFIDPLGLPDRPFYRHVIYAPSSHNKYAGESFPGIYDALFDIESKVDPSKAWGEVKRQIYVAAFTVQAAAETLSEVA
Description: flow cytometry cell binding assay, bispecific antibody titrated on LNCaP cells (human PSMA). The procedure:
PSMA×CD3 bispecific antibodies were tested for binding to PSMA positive cell lines LNCAP, human PSMA-HEK, Chimpanzee-PSMA-HEK and Cynomolgous monkey PSMA-HEK. To assess the binding capabilities of the PSMA bispecific antibodies, the cell-binding assay was utilized (described previously). Briefly, PSMA expressing tumor cells are bound by bispecific antibodies at known concentrations and the bound antibody is detected by an anti-human kappa light chain PE conjugated detection reagent (Invitrogen). The Mean Fluorescents Intensity (MFI) is the measure of bound bispecific antibody. The MFI is converted to a relative EC₅₀. EC₅₀ is a commonly used dose-response curve, where the half maximal effective concentration or the EC₅₀ point is defined as the inflection point of the curve. EC₅₀ s were determined by measuring cell bound bispecific and known concentrations. […] The dose response curves were then diluted down to that of background or no bispecific binding. The inflection point of this curve reflects the EC₅₀ point. The calculated EC₅₀ is determined by taking the ug/ml amount of bispecific antibody at the EC₅₀ point and converting it to a molarity value based on the MW of the bispecific antibody. Bispecific antibodies were normalized for protein concentration and then incubated with the same number of cells expressing either human or cyno PSMA. The MFI at each concentration was collected by flow cytometry and plotted as a function of concentration. Data was transformed via log 10 and then plotted. Nonlinear regression of binding curves was done to determine EC₅₀ s. These relative values were used for ranking PSMA binding to target cells.
PSMA×CD3 bispecific antibodies were tested for binding to PSMA positive cell line, LNCAP, to PSMA negative cell line, PC3. To assess the binding capabilities of the PSMA bispecific antibodies, the cell-binding assay was utilized (described previously). Bispecific antibodies were normalized for protein concentration and then incubated with the same number of cells expressing either human or cyno PSMA. The MFI at each concentration was collected by flow cytometry and plotted as a function of concentration.
Take B11: the binding result was “binds”.

On to B12, for which the binding result is “binds”.

Turning to B13, the binding result was “binds”.

For the molecule B14, the binding result is “binds”.

On to B15, for which the binding result is “binds”.

On to B16, for which the binding result is on record as “binds”.

For the molecule B17, the binding result is on record as “binds”.

Consider B18, for which the binding result is reported as “binds”.

Turning to B19, the binding result was “binds”.

On to B20, for which the binding result was “binds”.

Turning to B21, the binding result is “binds”.
